Laboratory results as given in patent US20170051058A1 (UNIVERSITAET DUISBURG ESSEN, published 2017).

Experiments:
[1] = target: CEACAM1 on human CD8+ T cells from the blood of healthy donors (human) (UniProt P13688); assay: flow cytometry on human PBMCs, gated on CD8+ T cells, anti-mouse IgG-APC
[2] = target: CEACAM1 without N-domain (human) (UniProt P13688); assay: sandwich ELISA, CEACAM1dN from CHO transfectants captured by anti-CEA, detection with anti-mouse Ig-HRP
CEACAM1 [3] = target: T1, CEACAM1 (human, UniProt P13688 35-526, limits assumed); assay: sandwich ELISA, CEACAM1 from CHO transfectants captured by anti-CEA, detection with anti-mouse Ig-HRP
T1 construct: also called entire CEACAM1; CD66a
T1 sequence: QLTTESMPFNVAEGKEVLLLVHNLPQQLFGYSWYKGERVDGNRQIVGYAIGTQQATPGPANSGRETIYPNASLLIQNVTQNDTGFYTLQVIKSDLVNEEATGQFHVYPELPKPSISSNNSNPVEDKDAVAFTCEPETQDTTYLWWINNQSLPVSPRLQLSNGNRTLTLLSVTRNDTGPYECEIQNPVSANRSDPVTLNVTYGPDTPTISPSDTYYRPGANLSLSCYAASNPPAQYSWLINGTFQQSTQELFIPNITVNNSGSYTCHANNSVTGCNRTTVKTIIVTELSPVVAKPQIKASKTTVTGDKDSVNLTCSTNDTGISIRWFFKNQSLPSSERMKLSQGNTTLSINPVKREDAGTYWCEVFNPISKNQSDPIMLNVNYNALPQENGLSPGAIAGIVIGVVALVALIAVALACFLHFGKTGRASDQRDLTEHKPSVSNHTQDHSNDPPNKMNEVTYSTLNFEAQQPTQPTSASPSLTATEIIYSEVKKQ
Procedure: Sandwich ELISA was coated with 0.25 μg/100 microL/well of anti-CEA (Dako). ELISA was washed and remaining binding sites blocked. Subsequently, CEACAM1 or CEACAM1deltaN (therefore CEACAM1 without N-domain, CEACAM1dN) was added thereto. CEACAM1 and CEACAM1deltaN were obtained from CHO transfectants. The ELISA was then incubated with differing antibodies. After 4 hours of incubation, the ELISA was washed and incubated with anti-mouse Ig-HRP. After 1 hour, the substrate TMB was added and the absorption measured at 450 nm.

CEACAM1 [4] = target: T1, CEACAM1; assay: method not stated

isotype control (antibody)
mean fluorescence intensity [1]: 436 MFI

B1: anti-human CEACAM1 antibody (clone 18-20) (antibody, V domains shown)
VH: KPGETVKISCKASGYTFTVYGMNWVKQAPGKDLKWMGWINTYTGEPTYADDFKGRFAFSLETSASTAYLQINNLKNEDMATYFCARKAFYRYDGGMDYWGQGTSVTVSS
VL: SSLSASLGGKVTITCKASQDINKFLAWYQHKPGKGPRLLIHYTSTLQPGIPSRFSGSGSGRDYSFSISNLEPEDIATYYCLQYDNLYTFGGGTKLEIK
notes: Mouse monoclonal antibody from a hybridoma; also called antibody 18-20
absorption at 450 nm (mean) (absorption at 450 nm) [2]: 0.053 | absorption at 450 nm (mean) (CEACAM1 [3]): 1.3 absorption at 450 nm | Kd (CEACAM1 [4]): 26 nM

B2: anti-human CEACAM1 antibody (clone B3-17) (antibody, V domains shown)
VH: GPELVKPGTSVKMSCKASGYTFTTYVMHWVQQKPGQGLDWIGFFNPYNDGTKYNEKFKGKATLTSDKSSSTAYMELSSLTSEDSAVYYCARWAYDGSYAYWGQGTTLTVSS
VL: SYLSVFLGGRVTITCKASDHINNWLAWYQQKPGNAPRLLISGATSLETGVPSRFSGSGSGKDYTLSIISLQTEDVATYYCQQYWRTPFTFGSGTKLEIK
notes: Mouse monoclonal antibody from a hybridoma; also called antibody B3-17; mAB, B3-17
absorption at 450 nm (mean) (absorption at 450 nm) [2]: 0.91 | absorption at 450 nm (mean) (CEACAM1 [3]): 0.62 absorption at 450 nm | Kd (CEACAM1 [4]): 10 nM

B3: anti-human CEACAM1 antibody (clone 6G5J) (antibody, V domains shown)
VH: KPGETVKISCKTSGYIFRNYGMKWVKQAPGKGLKWMGWINTYTGEPTYADDFKGRFAFSLETSASTAYLQINNLKNEDMATYFCARRGMITTSNYALDNWGQGTSVTVSS
VL: SSLSASLGDRVTISCRASQDISNYLNWYQQKPDGTIKLLIYYTSKLHSGVPSRFSGSGSGTDYSLTISNLDQEDIATYFCQQGNTLPWTFGGGTKLEIK
notes: Mouse monoclonal antibody from a hybridoma; also called antibody 6G5J
absorption at 450 nm (mean) (absorption at 450 nm) [2]: 0.066 | absorption at 450 nm (mean) (CEACAM1 [3]): 1.09 absorption at 450 nm | Kd (CEACAM1 [4]): 23 nM
